Our source for the koff, kon and Kd values is article PMC8705818, “Experimental Characterization of the Interaction between the N-Terminal SH3 Domain of Crkl and C3G” (International Journal of Molecular Sciences, 2021).

Ends that are not written are not given here. * marks the point of attachment. Dansyl = CN(C)c1cccc2c(S(=O)(=O)*)cccc12

For assay [1], the target named is dansyl-C3G277-296 peptide (UniProt Q13905). Description: Stopped-flow fluorescence kinetics (FRET from Trp164/Trp165 to dansyl; excitation 280 nm, 455 nm cut-off filter). kon from binding experiments, koff from separate displacement experiments, KD = koff/k. The settings on record: 10 °C, 0.5 M NaCl added to all buffers, 50 mM sodium acetate at pH 5.0 and 5.5, 50 mM Bis-Tris at pH 6.0 and 6.5, 50 mM Hepes at pH 7.0 and 7.5, 50 mM Tris-HCl.

The target is the same in assay [2]. Description: Stopped-flow fluorescence kinetics (FRET Trp to dansyl). kon from binding, koff from displacement, KD = koff/kon. The settings on record: pH 7.0, 10 °C, Hepes 50 mM pH 7.0.
For assay [3], the target named is dansylated C3G_(277–296) peptide. Description: stopped-flow kinetics (FRET, Trp to dansyl); variants, ionic strength series: 0.5 µM dansyl peptide mixed with 2.0-4.5 µM N-SH3 variant; KD = koff/kon; 50 mM Hepes pH 7.5, 0 M NaCl, 10 °C.
The target is the same in assay [4]. In words: stopped-flow kinetics (FRET, Trp to dansyl); variants, ionic strength series: 0.5 µM dansyl peptide mixed with N-SH3 variant (D138A 2.5-6.0 µM, E140A 3.0-5.0 µM); KD = koff/kon; 50 mM Hepes pH 7.5, 0.1 M NaCl, 10 °C.
For assay [5] the target is unchanged. Description: stopped-flow kinetics (FRET, Trp to dansyl); variants, ionic strength series: 0.5 µM dansyl peptide mixed with N-SH3 variant (D138A 2.5-6.0 µM, E140A 3.0-5.5 µM); KD = koff/kon; 50 mM Hepes pH 7.5, 0.15 M NaCl, 10 °C.
For assay [6] the target is unchanged. In words: stopped-flow kinetics (FRET, Trp to dansyl); variants, ionic strength series: 0.5 µM dansyl peptide mixed with N-SH3 variant (D138A 2.5-6.0 µM, E140A 3.0-5.5 µM); KD = koff/kon; 50 mM Hepes pH 7.5, 0.05 M NaCl, 10 °C.
The target is the same in assay [7]. Description: stopped-flow kinetics (FRET, Trp to dansyl); pH series: 0.5 µM dansyl peptide mixed with 1.5-6.0 µM N-SH3; koff from displacement; Tris-HCl 50 mM pH 8.0, 0.5 M NaCl, 10 °C.
Assay [8] shares this target. Description: stopped-flow kinetics (FRET, Trp to dansyl); ionic strength series: 0.5 µM dansyl peptide mixed with 0.5-5 µM N-SH3; koff from displacement; KD = koff/kon; Hepes 50 mM pH 7.0, 0.5 M NaCl, 10 °C.
Assay [9] shares this target. In words: stopped-flow kinetics (FRET, Trp to dansyl); pH series: 0.5 µM dansyl peptide mixed with 1.5-6.0 µM N-SH3; koff from displacement; Tris-HCl 50 mM pH 8.5, 0.5 M NaCl, 10 °C.
For assay [10] the target is unchanged. In words: stopped-flow kinetics (FRET, Trp to dansyl); ionic strength series: 0.5 µM dansyl peptide mixed with 0.5-5 µM N-SH3; koff from displacement; KD = koff/kon; Hepes 50 mM pH 7.0, 0.3 M NaCl, 10 °C.
The target is the same in assay [11]. In words: stopped-flow kinetics (FRET, Trp to dansyl); pH series: 0.5 µM dansyl peptide mixed with 0.5-5.0 µM N-SH3; koff from displacement; Hepes 50 mM pH 7.5, 0.5 M NaCl, 10 °C.
For assay [12] the target is unchanged. Description: stopped-flow kinetics (FRET, Trp to dansyl); ionic strength series: 0.5 µM dansyl peptide mixed with 0.5-5 µM N-SH3; koff from displacement; KD = koff/kon; Hepes 50 mM pH 7.0, 0.15 M NaCl, 10 °C.
The target is the same in assay [13]. In words: stopped-flow kinetics (FRET, Trp to dansyl); pH series: 0.5 µM dansyl peptide mixed with 1.5-6.0 µM N-SH3; koff from displacement; Tris-HCl 50 mM pH 9.0, 0.5 M NaCl, 10 °C.
The target is the same in assay [14]. In words: stopped-flow kinetics (FRET, Trp to dansyl); pH series: 0.5 µM dansyl peptide mixed with 1.0-5.0 µM N-SH3; koff from displacement; Bis-Tris 50 mM pH 6.0, 0.5 M NaCl, 10 °C.
The target is the same in assay [15]. Description: stopped-flow kinetics (FRET, Trp to dansyl); pH series: 0.5 µM dansyl peptide mixed with 2.0-7.0 µM N-SH3; koff from displacement; 50 mM sodium acetate pH 5.5, 0.5 M NaCl, 10 °C.
Assay [16] has the same target. In words: stopped-flow kinetics (FRET, Trp to dansyl); ionic strength series: 0.5 µM dansyl peptide mixed with 1-5 µM N-SH3; koff from displacement with excess nondansylated peptide; KD = koff/kon; Hepes 50 mM pH 7.0, 0 M NaCl, 10 °C.
For assay [17] the target is unchanged. In words: stopped-flow kinetics (FRET, Trp to dansyl); pH series: 0.5 µM dansyl peptide mixed with 4.0-8.0 µM N-SH3; koff from displacement; 50 mM sodium acetate pH 5.0, 0.5 M NaCl, 10 °C.
Assay [18] shares this target. Description: stopped-flow kinetics (FRET, Trp to dansyl); pH series: 0.5 µM dansyl peptide mixed with 1.5-6.0 µM N-SH3; koff from displacement; Hepes 50 mM pH 7.0, 0.5 M NaCl, 10 °C.
For assay [19] the target is unchanged. Description: stopped-flow kinetics (FRET, Trp to dansyl); pH series: 0.5 µM dansyl peptide mixed with 0.5-5.0 µM N-SH3; koff from displacement; Bis-Tris 50 mM pH 6.5, 0.5 M NaCl, 10 °C.
Assay [20] has the same target. In words: stopped-flow kinetics (FRET, Trp to dansyl); ionic strength series: 0.5 µM dansyl peptide mixed with 0.5-5 µM N-SH3; koff from displacement; KD = koff/kon; Hepes 50 mM pH 7.0, 1 M NaCl, 10 °C.
Assay [21] has as its target N-SH3 domain of Crkl, D141A variant. Description: other fluorescence titration; equilibrium: 1 µM N-SH3 D141A constant, increasing dansyl-C3G; quenching of Trp fluorescence at 350 nm (excitation 280 nm); hyperbolic fit; 50 mM Hepes pH 7.0, 10 °C.

A word on the koff: it is the rate constant with which the complex falls apart. The low end stands for a long-lived complex, the high end for a short-lived complex. As usually defined, the kon is a measure of how fast the partners come together. For orientation: Kd means the constant that tells how readily two partners part at equilibrium. A high value points to lower affinity.

Consider “Crkl N-terminal SH3 domain (N-SH3), wild type”, for which the koff in assay [1] (pH 5.0) turned out to be 257 s⁻¹; in [1] (pH 5.5) it was 81 s⁻¹; in assay [1] (pH 6.0), 78 s⁻¹; in assay [1] (pH 6.5), 65 s⁻¹; in [1] (pH 7.0), 42 s⁻¹; in assay [1] (pH 7.5), 34 s⁻¹. For the same molecule, the koff was found to be 46 s⁻¹ in assay [1] (pH 8.0); 40 s⁻¹ in assay [1] (pH 8.5); 39 s⁻¹ in assay [1] (pH 9.0); 12 s⁻¹ in assay [2] (0 M NaCl added); 23 s⁻¹ in [2] (0.15 M NaCl); 32 s⁻¹ in assay [2] (0.3 M NaCl). Also, the results for the off-rate constant (koff) in assay [2] (0.5 M NaCl) and in assay [2] (1.0 M NaCl) were 34 s⁻¹ and 51 s⁻¹, respectively. Moreover, the kon in [1] (pH 5.0) was 4.4e+07 M⁻¹ s⁻¹; in assay [1] (pH 5.5), 3.7e+07 M⁻¹ s⁻¹; in assay [1] (pH 6.0), 1.5e+07 M⁻¹ s⁻¹; in assay [1] (pH 6.5), 6.5e+07 M⁻¹ s⁻¹; in [1] (pH 7.0), 5.2e+07 M⁻¹ s⁻¹; in [1] (pH 7.5), 5.1e+07 M⁻¹ s⁻¹. The kon was found to be 5.6e+07 M⁻¹ s⁻¹ in [1] (pH 8.0); 6.8e+07 M⁻¹ s⁻¹ in assay [1] (pH 8.5); 3.9e+07 M⁻¹ s⁻¹ in assay [1] (pH 9.0); 1.3e+08 M⁻¹ s⁻¹ in [2] (0 M NaCl added); 9.6e+07 M⁻¹ s⁻¹ in assay [2] (0.15 M NaCl); 8.3e+07 M⁻¹ s⁻¹ in [2] (0.3 M NaCl). Besides, the kon is 5.1e+07 M⁻¹ s⁻¹ in assay [2] (0.5 M NaCl) and 6.8e+07 M⁻¹ s⁻¹ in assay [2] (1.0 M NaCl).
On to “N-SH3 domain of Crkl, D138A variant (domain or fragment)”, for which the Kd in [3] came out at 900 nM; in [4], 3800 nM; in assay [5] it was 22000 nM; in assay [6], 2600 nM. In addition, the koff in assay [3] was 139 s⁻¹; in assay [4] it was 183 s⁻¹; in [5] it was 254 s⁻¹; in assay [6] it was 212 s⁻¹. In addition, the kon is 1.58e+08 M⁻¹ s⁻¹ in assay [3], 4.8e+07 M⁻¹ s⁻¹ in [4], 1.2e+07 M⁻¹ s⁻¹ in assay [5] and 8.1e+07 M⁻¹ s⁻¹ in assay [6].
“N-SH3 domain of Crkl, E140A variant (domain or fragment)”: the Kd in assay [3] worked out at 3300 nM; in [4], 3900 nM; in assay [5], 4200 nM; in assay [6], 3700 nM. Moreover, the koff came to 254 s⁻¹ in assay [3], 302 s⁻¹ in assay [4], 339 s⁻¹ in [5] and 330 s⁻¹ in assay [6]. Moreover, the kon worked out at 7.8e+07 M⁻¹ s⁻¹ in assay [3], 7.7e+07 M⁻¹ s⁻¹ in assay [4], 8.1e+07 M⁻¹ s⁻¹ in assay [5] and 8.9e+07 M⁻¹ s⁻¹ in assay [6].
For the molecule “N-terminal SH3 domain of Crkl, wild type (domain or fragment)”, the Kd came to 800 nM in [7]; 660 nM in assay [8]; 600 nM in [9]; 390 nM in assay [10]; 700 nM in assay [11]; 240 nM in [12]. Moreover, the Kd was found to be 1000 nM in assay [13]; 5400 nM in assay [14]; 2200 nM in [15]; 90 nM in assay [16]; 5900 nM in [17]; 800 nM in assay [18]. The Kd in assay [19] is 1000 nM; in assay [20], 750 nM. For the same molecule, the koff in assay [7] amounted to 46 s⁻¹; in assay [8] it was 34 s⁻¹; in assay [9] it was 40 s⁻¹; in assay [10], 32 s⁻¹; in [11] it was 34 s⁻¹; in assay [12] it was 23 s⁻¹. The koff in assay [13] amounted to 39 s⁻¹; in assay [14], 78 s⁻¹; in [15], 81 s⁻¹; in assay [16], 12 s⁻¹; in [17], 257 s⁻¹; in assay [18], 42 s⁻¹. Further, the figures for the koff in [19] and in assay [20] were 65 s⁻¹ and 51 s⁻¹, respectively. The kon is 5.6e+07 M⁻¹ s⁻¹ in [7]; 5.1e+07 M⁻¹ s⁻¹ in assay [8]; 6.8e+07 M⁻¹ s⁻¹ in assay [9]; 8.3e+07 M⁻¹ s⁻¹ in [10]; 5.1e+07 M⁻¹ s⁻¹ in assay [11]; 9.6e+07 M⁻¹ s⁻¹ in assay [12]. In addition, the kon was 3.9e+07 M⁻¹ s⁻¹ in [13]; 1.5e+07 M⁻¹ s⁻¹ in [14]; 3.7e+07 M⁻¹ s⁻¹ in assay [15]; 1.3e+08 M⁻¹ s⁻¹ in assay [16]; 4.4e+07 M⁻¹ s⁻¹ in [17]; 5.2e+07 M⁻¹ s⁻¹ in assay [18]. Moreover, the on-rate (kon) in assay [19] worked out at 6.5e+07 M⁻¹ s⁻¹; in assay [20] it was 6.8e+07 M⁻¹ s⁻¹.
Molecule Dansyl-VVDNSPPPALPPKKRQSAPS [dansylated C3G_(277–296) peptide] registered a dissociation constant (Kd) in assay [21] of 1070 nM.
